US20230250154A1 (CYTONICS, published 2023)

T1: Cathepsin G (UniProt P08311 21-244)
T1 sequence (looked up): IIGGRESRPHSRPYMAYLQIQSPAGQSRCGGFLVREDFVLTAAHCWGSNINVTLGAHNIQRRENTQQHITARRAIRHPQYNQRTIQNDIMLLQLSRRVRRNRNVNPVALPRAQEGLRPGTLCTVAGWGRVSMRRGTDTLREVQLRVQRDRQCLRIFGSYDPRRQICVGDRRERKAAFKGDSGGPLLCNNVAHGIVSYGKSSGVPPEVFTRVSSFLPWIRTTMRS


Columns and labels:
[1] = target: T1, Cathepsin G; assay: cell-based or functional assay
[2] = target: Elastase; assay: cell-based or functional assay

Row | Protease Inhibition (% of WT) [1] | Protease Inhibition (% of WT) [2] | Binder
1 | 350 % of WT | 250 % of WT | Variant A2M, bait region SEQ ID NO 143 (other) SVSGKPQYMVLVPSLLHTETTEKGCVLLSYLNETVTVSASLESVRGNRSLFTDLEAENDVLHCVAFAVPKSSSNEEVMFLTVQVKGPTQEFKKRTTVMVKNEDSLVFVQTDKSIYKPGQTVKFRVVSMDENFHPLNELIPLVYIQDPKGNRIAQWQSFQLEGGLKQFSFPLSSEPFQGSYKVVVQKKSGGRTEHPFTVEEFVLPKFEVQVTVPKIITILEEEMNVSVCGLYTYGKPVPGHVTVSICRKYSDASDCHGEDSQAFCEKFSGQLNSHGCFYQQVKTKVFQLKRKEYEMKLHTEAQIQEEGTVVELTGRQSSEITRTITKLSFVKVDSHFRQGIPFFGQVRLVDGKGVPIPNKVIFIRGNEANYYSNATTDEHGLVQFSINTTNVMGTSLTVRVNYKDRSPCYGYQWVSEEHEEAHHTAYLVFSPSKSFVHLEPMSHELPCGHTQTVQAHYILNGGTLLGLKKLSFYYLIMAKGGIVRTGTHGLLVKQEDMKGHFSISIPVKSDIAPVARLLIYAVLPTGDVIGDSAKYDVENCLANKVDLSFSPSQSLPASHAHLRVTAAPQSVCALRAVDQSVLLMKPDAELSASSVYNLLPEKDLTGFPGPLNDQDDEDCINRHNVYINGITYTPVSSTNEKDMYSFLEDMGLKAFTNSKIRKPKMCPQLEQYEMHGPIPENFFGVSEDLVVQIEGEGEGEGEAIPMSIPTEPHTKLRKYFPETWIWDLVVVNSAGVAEVGVTVPDTITEWKAGAFCLSEDAGLGISSTASLRAFQPFFVELTMPYSVIRGEAFTLKATVLNYLPKCIRVSVQLEASPAFLAVPVEKEQAPHCICANGRQTVSWAVTPKSLGNVNFTVSAEALESQELCGTEVPSVPEHGRKDTVIKPLLVEPEGLEKETTFNSLLCPSGGEVSEELSLKLPPNVVEESARASVSVLGDILGSAMQNTQNLLQMPYGCGEQNMVLFAPNIYVLDYLNETQQLTPEIKSKAIGYLNTGYQRQLNYKHYDGSYSTFGERYGRNQGNTWLTAFVLKTFAQARAYIFIDEAHITQALIWLSQRQKDNGCFRSSGSLLNNAIKGGVEDEVTLSAYITIALLEIPLTVTHPVVRNALFCLESAWKTAQEGDHGSHVYTKALLAYAFALAGNQDKRKEVLKSLNEEAVKKDNSVHWERPQKPKAPVGHFYEPQAPSAEVEMTSYVLLAYLTAQPAPTSEDLTSATNIVKWITKQQNAQGGFSSTQDTVVALHALSKYGAATFTRTGKAAQVTIQSSGTFSSKFQVDNNNRLLLQQVSLPELPGEYSMKVTGEGCVYLQTSLKYNILPEKEEFPFALGVQTLPQTCDEPKAHTSFQISLSVSYTGSRSASNMAIVDVKMVSGFIPLKPTVKMLERSNHVSRTEVSSNHVLIYLDKVSNQTLSLFFTVLQDVPVRDLKPAIVKVYDYYETDEFAIAEYNAPCSKDLGNADYKDDDDKGASHHHHHH
2 | 100 % of WT | 75 % of WT | Variant A2M, bait region SEQ ID NO 141 (other) SVSGKPQYMVLVPSLLHTETTEKGCVLLSYLNETVTVSASLESVRGNRSLFTDLEAENDVLHCVAFAVPKSSSNEEVMFLTVQVKGPTQEFKKRTTVMVKNEDSLVFVQTDKSIYKPGQTVKFRVVSMDENFHPLNELIPLVYIQDPKGNRIAQWQSFQLEGGLKQFSFPLSSEPFQGSYKVVVQKKSGGRTEHPFTVEEFVLPKFEVQVTVPKIITILEEEMNVSVCGLYTYGKPVPGHVTVSICRKYSDASDCHGEDSQAFCEKFSGQLNSHGCFYQQVKTKVFQLKRKEYEMKLHTEAQIQEEGTVVELTGRQSSEITRTITKLSFVKVDSHFRQGIPFFGQVRLVDGKGVPIPNKVIFIRGNEANYYSNATTDEHGLVQFSINTTNVMGTSLTVRVNYKDRSPCYGYQWVSEEHEEAHHTAYLVFSPSKSFVHLEPMSHELPCGHTQTVQAHYILNGGTLLGLKKLSFYYLIMAKGGIVRTGTHGLLVKQEDMKGHFSISIPVKSDIAPVARLLIYAVLPTGDVIGDSAKYDVENCLANKVDLSFSPSQSLPASHAHLRVTAAPQSVCALRAVDQSVLLMKPDAELSASSVYNLLPEKDLTGFPGPLNDQDDEDCINRHNVYINGITYTPVSSTNEKDMYSFLEDMGLKAFTNSKIRKPKMCPQLEQYEMHGPEAIPMSIPTSELEGRGSIPENFFGVEGEGEGEGEPHTKLRKYFPETWIWDLVVVNSAGVAEVGVTVPDTITEWKAGAFCLSEDAGLGISSTASLRAFQPFFVELTMPYSVIRGEAFTLKATVLNYLPKCIRVSVQLEASPAFLAVPVEKEQAPHCICANGRQTVSWAVTPKSLGNVNFTVSAEALESQELCGTEVPSVPEHGRKDTVIKPLLVEPEGLEKETTFNSLLCPSGGEVSEELSLKLPPNVVEESARASVSVLGDILGSAMQNTQNLLQMPYGCGEQNMVLFAPNIYVLDYLNETQQLTPEIKSKAIGYLNTGYQRQLNYKHYDGSYSTFGERYGRNQGNTWLTAFVLKTFAQARAYIFIDEAHITQALIWLSQRQKDNGCFRSSGSLLNNAIKGGVEDEVTLSAYITIALLEIPLTVTHPVVRNALFCLESAWKTAQEGDHGSHVYTKALLAYAFALAGNQDKRKEVLKSLNEEAVKKDNSVHWERPQKPKAPVGHFYEPQAPSAEVEMTSYVLLAYLTAQPAPTSEDLTSATNIVKWITKQQNAQGGFSSTQDTVVALHALSKYGAATFTRTGKAAQVTIQSSGTFSSKFQVDNNNRLLLQQVSLPELPGEYSMKVTGEGCVYLQTSLKYNILPEKEEFPFALGVQTLPQTCDEPKAHTSFQISLSVSYTGSRSASNMAIVDVKMVSGFIPLKPTVKMLERSNHVSRTEVSSNHVLIYLDKVSNQTLSLFFTVLQDVPVRDLKPAIVKVYDYYETDEFAIAEYNAPCSKDLGNADYKDDDDKGASHHHHHH
3 | 450 % of WT | 100 % of WT | Variant A2M, bait region SEQ ID NO 137 (other) SVSGKPQYMVLVPSLLHTETTEKGCVLLSYLNETVTVSASLESVRGNRSLFTDLEAENDVLHCVAFAVPKSSSNEEVMFLTVQVKGPTQEFKKRTTVMVKNEDSLVFVQTDKSIYKPGQTVKFRVVSMDENFHPLNELIPLVYIQDPKGNRIAQWQSFQLEGGLKQFSFPLSSEPFQGSYKVVVQKKSGGRTEHPFTVEEFVLPKFEVQVTVPKIITILEEEMNVSVCGLYTYGKPVPGHVTVSICRKYSDASDCHGEDSQAFCEKFSGQLNSHGCFYQQVKTKVFQLKRKEYEMKLHTEAQIQEEGTVVELTGRQSSEITRTITKLSFVKVDSHFRQGIPFFGQVRLVDGKGVPIPNKVIFIRGNEANYYSNATTDEHGLVQFSINTTNVMGTSLTVRVNYKDRSPCYGYQWVSEEHEEAHHTAYLVFSPSKSFVHLEPMSHELPCGHTQTVQAHYILNGGTLLGLKKLSFYYLIMAKGGIVRTGTHGLLVKQEDMKGHFSISIPVKSDIAPVARLLIYAVLPTGDVIGDSAKYDVENCLANKVDLSFSPSQSLPASHAHLRVTAAPQSVCALRAVDQSVLLMKPDAELSASSVYNLLPEKDLTGFPGPLNDQDDEDCINRHNVYINGITYTPVSSTNEKDMYSFLEDMGLKAFTNSKIRKPKMCPQLEQYEMHGPSEDLVVQIKEEEGLGSIPENFFGVSELEGRGSVEEPHTKLRKYFPETWIWDLVVVNSAGVAEVGVTVPDTITEWKAGAFCLSEDAGLGISSTASLRAFQPFFVELTMPYSVIRGEAFTLKATVLNYLPKCIRVSVQLEASPAFLAVPVEKEQAPHCICANGRQTVSWAVTPKSLGNVNFTVSAEALESQELCGTEVPSVPEHGRKDTVIKPLLVEPEGLEKETTFNSLLCPSGGEVSEELSLKLPPNVVEESARASVSVLGDILGSAMQNTQNLLQMPYGCGEQNMVLFAPNIYVLDYLNETQQLTPEIKSKAIGYLNTGYQRQLNYKHYDGSYSTFGERYGRNQGNTWLTAFVLKTFAQARAYIFIDEAHITQALIWLSQRQKDNGCFRSSGSLLNNAIKGGVEDEVTLSAYITIALLEIPLTVTHPVVRNALFCLESAWKTAQEGDHGSHVYTKALLAYAFALAGNQDKRKEVLKSLNEEAVKKDNSVHWERPQKPKAPVGHFYEPQAPSAEVEMTSYVLLAYLTAQPAPTSEDLTSATNIVKWITKQQNAQGGFSSTQDTVVALHALSKYGAATFTRTGKAAQVTIQSSGTFSSKFQVDNNNRLLLQQVSLPELPGEYSMKVTGEGCVYLQTSLKYNILPEKEEFPFALGVQTLPQTCDEPKAHTSFQISLSVSYTGSRSASNMAIVDVKMVSGFIPLKPTVKMLERSNHVSRTEVSSNHVLIYLDKVSNQTLSLFFTVLQDVPVRDLKPAIVKVYDYYETDEFAIAEYNAPCSKDLGNADYKDDDDKGASHHHHHH
